Data reported in the supplement of paper PMC10567573.

B1: SNAP91 (parent)
chain: FATASAAVPVSTSKPSSDLLDLQP

Variants of: B1
Assay: protein stability index of a GFP-peptide fusion (GPS, HEK-293T) (PSI 1-6); higher = more stable
Details: c terminus: a fixed tail appended
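Further: lentivirally expressed fusions sorted by FACS into six bins by GFP to DsRed ratio, PSI derived from sequencing read proportions per bin multiplied by bin number.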

| Variant | protein stability index |
| --- | --- |
| FATASAAVPVSTQKPSSDLLDLQP [S13Q] | 3.8 |
| FATASAAVPVSTSKPQSDLLDLQP [S16Q] | 3.93 |
| FATASAHVPVSTSKPSSDLLDLQP [A7H] | 3.24 |
| FATASAAAPVSTSKPSSDLLDLQP [V8A] | 3.58 |
| FATASAAVPVSTSKPSSDLWDLQP [L20W] | 2.97 |
| FATADAAVPVSTSKPSSDLLDLQP [S5D] | 4.17 |
| FATASAAVPVSTSKPSSDLLDLQH [P24H] | 3.74 |
| FATASAAVPVSTSKPSSDLLDTQP [L22T] | 4.3 |
| FATASAAVPVSNSKPSSDLLDLQP [T12N] | 3.7 |
| FATASHAVPVSTSKPSSDLLDLQP [A6H] | 3.19 |
| FATASAAVPVSTSTPSSDLLDLQP [K14T] | 3.97 |
| FATASAAVVVSTSKPSSDLLDLQP [P9V] | 2.24 |
| FATASGAVPVSTSKPSSDLLDLQP [A6G] | 3.5 |
| FATASAAVPVSTHKPSSDLLDLQP [S13H] | 3.66 |
| FATASAAVPVSTSKPSSDLLDLLP [Q23L] | 3.38 |
| FATASAAVPVSTSCPSSDLLDLQP [K14C] | 3.61 |
| FATASMAVPVSTSKPSSDLLDLQP [A6M] | 2.92 |
| FATASAAVPVSTSKPESDLLDLQP [S16E] | 3.87 |
| FATASAAVPVSTSVPSSDLLDLQP [K14V] | 4.05 |
| FATASAAVPVSTSKPSNDLLDLQP [S17N] | 3.85 |
| FATASAAVPVSTSKPSIDLLDLQP [S17I] | 2.88 |
| FATASAAVPVSTSKPSSDLLDLAP [Q23A] | 3.5 |
| FATASAAVPVSESKPSSDLLDLQP [T12E] | 4.44 |
| FATASAAVPVSTRKPSSDLLDLQP [S13R] | 3.94 |

| Variant | protein stability index |
| --- | --- |
| FATASAAVPVSTSKMSSDLLDLQP [P15M] | 3.17 |
| FATASAAVPKSTSKPSSDLLDLQP [V10K] | 4.04 |
| FATASAAVPLSTSKPSSDLLDLQP [V10L] | 3.63 |
| FATASAATPVSTSKPSSDLLDLQP [V8T] | 4.12 |
| FATASAAVPVSTSYPSSDLLDLQP [K14Y] | 3.21 |
| FATASAAVPVSTCKPSSDLLDLQP [S13C] | 2.57 |
| FATAKAAVPVSTSKPSSDLLDLQP [S5K] | 4.11 |
| FATDSAAVPVSTSKPSSDLLDLQP [A4D] | 4.72 |
| FATASAANPVSTSKPSSDLLDLQP [V8N] | 4.32 |
| FATASAAVPVSTSKSSSDLLDLQP [P15S] | 3.73 |
| FATASAAVPVSTSKPSSDLLDLHP [Q23H] | 3.35 |
| FATASAAVPVSDSKPSSDLLDLQP [T12D] | 4.04 |
| KATASAAVPVSTSKPSSDLLDLQP [F1K] | 4.92 |
| FATASAAVPVSKSKPSSDLLDLQP [T12K] | 3.61 |
| FATASAAVPVSTSKPSSDLLDLEP [Q23E] | 4.46 |
| FATASAACPVSTSKPSSDLLDLQP [V8C] | 3.38 |
| FATASAAVPVSTSKPSKDLLDLQP [S17K] | 3.47 |
| FATASAAVPVSTSKYSSDLLDLQP [P15Y] | 2.99 |
| FATASAAVPVSTSKPSSDWLDLQP [L19W] | 2.5 |
| FATASAAVSVSTSKPSSDLLDLQP [P9S] | 3.26 |
| FATASAAVAVSTSKPSSDLLDLQP [P9A] | 2.96 |
| FATGSAAVPVSTSKPSSDLLDLQP [A4G] | 3.63 |
| FATAPAAVPVSTSKPSSDLLDLQP [S5P] | 3.54 |
| FATASAAVPHSTSKPSSDLLDLQP [V10H] | 4.01 |

| Variant | protein stability index |
| --- | --- |
| FATASAALPVSTSKPSSDLLDLQP [V8L] | 3.37 |
| FATASAAVPVSTSKPSSDDLDLQP [L19D] | 4.64 |
| FATASAAVPVSTSKPSSDLSDLQP [L20S] | 4.29 |
| FATASWAVPVSTSKPSSDLLDLQP [A6W] | 4.07 |
| FATASAAVPVSTSKPSSDLLDQQP [L22Q] | 4.3 |
| FATASAAVPVSTSNPSSDLLDLQP [K14N] | 3.89 |
| FATASAAVPVSTSKGSSDLLDLQP [P15G] | 3.97 |
| FLTASAAVPVSTSKPSSDLLDLQP [A2L] | 3.75 |
| FATASAAVPVSTYKPSSDLLDLQP [S13Y] | 3.36 |
| FATASAAVPVSTSKPSSDLLDLQK [P24K] | 4.34 |
| FATASAAVPMSTSKPSSDLLDLQP [V10M] | 3.55 |
| IATASAAVPVSTSKPSSDLLDLQP [F1I] | 4.5 |
| FDTASAAVPVSTSKPSSDLLDLQP [A2D] | 5 |
| FATASAAVPVSTSKPSSDLLDWQP [L22W] | 2.96 |
| FATTSAAVPVSTSKPSSDLLDLQP [A4T] | 3.72 |
| FATASAAVPVSTSKPSSDLLDLQL [P24L] | 3.1 |
| FATASAAVPVSTSKPSSDLLDLVP [Q23V] | 3.4 |
| FATASAAVPVETSKPSSDLLDLQP [S11E] | 4.2 |
| FAPASAAVPVSTSKPSSDLLDLQP [T3P] | 2.41 |
| FATASAAVPVSTSKPSSDLLDNQP [L22N] | 4.4 |
| FATASAVVPVSTSKPSSDLLDLQP [A7V] | 3.05 |
| FATAGAAVPVSTSKPSSDLLDLQP [S5G] | 3.54 |
| RATASAAVPVSTSKPSSDLLDLQP [F1R] | 4.99 |
| FATASAAVPVSTSKPSSDLLDLPP [Q23P] | 4.13 |

| Variant | protein stability index |
| --- | --- |
| FATASAAVPVSTSQPSSDLLDLQP [K14Q] | 4.61 |
| FATASAAVPVSTSEPSSDLLDLQP [K14E] | 4.45 |
| FATASAAVPVSTSKPSSDLLDLQD [P24D] | 4.52 |
| FATASAAVPVSTSKPSSRLLDLQP [D18R] | 2.84 |
| FATASAAVPVSTSKPSSDLLDCQP [L22C] | 3.84 |
| FATASAAVPVSTSGPSSDLLDLQP [K14G] | 3.97 |
| FATASANVPVSTSKPSSDLLDLQP [A7N] | 3.9 |
| FATASAAVPVSTSKPSSDLQDLQP [L20Q] | 4.14 |
| FATASAAVPVSTSKPSSDLLDDQP [L22D] | 4.22 |
| FPTASAAVPVSTSKPSSDLLDLQP [A2P] | 4.27 |
| FATASAAVPVSTSKPSSDLLDIQP [L22I] | 3.71 |
| FATASAAVPVSCSKPSSDLLDLQP [T12C] | 2.58 |
| FATASAAVPQSTSKPSSDLLDLQP [V10Q] | 4.61 |
| FATASAAVLVSTSKPSSDLLDLQP [P9L] | 1.92 |
| FATYSAAVPVSTSKPSSDLLDLQP [A4Y] | 3.73 |
| FATASAAVPVHTSKPSSDLLDLQP [S11H] | 3.01 |
| FATASAAVPVSTSFPSSDLLDLQP [K14F] | 2.6 |
| FATASAAVKVSTSKPSSDLLDLQP [P9K] | 3.23 |
| FATASAAVPVSTSKPSSDLLDLQF [P24F] | 2.8 |
| FATASAAVPVSTSHPSSDLLDLQP [K14H] | 3.58 |
| FATASAAVPVSTSKPSSDLLQLQP [D21Q] | 3.57 |
| FATASAAVPVSTSKPSSDLLDLSP [Q23S] | 4.18 |
